Assay results taken from PMC8782954, “Interplay between an ATP-binding cassette F protein and the ribosome from Mycobacterium tuberculosis” (Nature Communications, 2022).

B1: ribosomal protein uS7 of the Mtb 30S subunit (natural protein)
chain: MPRKGPAPKRPLVNDPVYGSQLVTQLVNKVLLKGKKSLAERIVYGALEQARDKTGTDPVITLKRALDNVKPALEVRSRRVGGATYQVPVEVRPDRSTTLALRWLVGYSRQRREKTMIERLANEILDASNGLGASVKRREDTHKMAEANRAFAHYRW
B2: MtbEttA (energy-dependent translational throttle A from Mycobacterium tuberculosis, Rv2477c) (natural protein)
chain: SMAEFIYTMKKVRKAHGDKVILDDVTLSFYPGAKIGVVGPNGAGKSSVLRIMAGLDKPNNGDAFLATGATVGILQQEPPLNEDKTVRGNVEEGMGDIKIKLDRFNEVAELMATDYTDELMEEMGRLQEELDHADAWDLDAQLEQAMDALRCPPADEPVTNLSGGERRRVALCKLLLSKPDLLLLDEPTNHLDAESVQWLEQHLASYPGAILAVTHDRYFLDNVAEWILELDRGRAYPYEGNYSTYLEKKAERLAVQGRKDAKLQKRLTEELAWVRSGAKARQAKSKARLQRYEEMAAEAEKTRKLDFEEIQIPVGPRLGNVVVEVDHLDKGYDGRALIKDLSFSLPRNGIVGVIGPNGVGKTTLFKTIVGLETPDSGSVKVGETVKLSYVDQARAGIDPRKTVWEVVSDGLDYIQVGQTEVPSRAYVSAFGFKGPDQQKPAGVLSGGERNRLNLALTLKQGGNLILLDEPTNDLDVETLGSLENALLNFPGCAVVISHDRWFLDRTCTHILAWEGDDDNEAKWFWFEGNFGAYEENKVERLGVDAARPHRVTHRKLTRG
notes: also called Mtb Rv2477c

Experiments:
[1] = target: B2; assay: cryo-EM structure; conditions: both partners purified
SEC = target: the molecule itself; assay: SEC

Binder | binding result [1] | stoichiometry N (SEC)
B1 | binds | 
B2 |  | 2
